Consider 12 proteins from patent US20260217835A1 (published 2026).

B1: IgG4 full-length heavy chain with T366W/L368A/Y407V (SEQ ID NO: 94) with light chain SEQ ID NO: 61 (antibody)
heavy: QVQLQESGPGLVRPSQTLSLTCTVSGYSITSDHAWSWVRQPPGRGLEWIGYISYSGITTYNPSLKSRVTMLRDTSKNQFSLRLSSVTAADTAVYYCARSLARTTAMDYWGQGSLVTVSSASTKGPSVFPLAPCSRSTSESTAALGCLVKDYFPEPVTVSWNSGALTSGVHTFPAVLQSSGLYSLSSVVTVPSSSLGTKTYTCNVDHKPSNTKVDKRVESKYGPPCPPCPAPEFLGGPSVFLFPPKPKDTLMISRTPEVTCVVVDVSQEDPEVQFNWYVDGVEVHNAKTKPREEQFNSTYRVVSVLTVLHQDWLNGKEYKCKVSNKGLPSSIEKTISKAKGQPREPQVYTLPPSQEEMTKNQVSLWCAVKGFYPSDIAVEWESNGQPENNYKTTPPVLDSDGSFFLVSRLTVDKSRWQEGNVFSCSVMHEALHNHYTQKSLSLSL
light: not shown
B2: IgG2 full-length heavy chain with K392D/D399K/K409D (SEQ ID NO: 91) with light chain SEQ ID NO: 61 (antibody)
heavy: QVQLQESGPGLVRPSQTLSLTCTVSGYSITSDHAWSWVRQPPGRGLEWIGYISYSGITTYNPSLKSRVTMLRDTSKNQFSLRLSSVTAADTAVYYCARSLARTTAMDYWGQGSLVTVSSASTKGPSVFPLAPCSRSTSESTAALGCLVKDYFPEPVTVSWNSGALTSGVHTFPAVLQSSGLYSLSSVVTVPSSNFGTQTYTCNVDHKPSNTKVDKTVERKCCVECPPCPAPPVAGPSVFLFPPKPKDTLMISRTPEVTCVVVDVSHEDPEVQFNWYVDGVEVHNAKTKPREEQFNSTFRVVSVLTVVHQDWLNGKEYKCKVSNKGLPAPIEKTISKTKGQPREPQVYTLPPSREEMTKNQVSLTCLVKGFYPSDIAVEWESNGQPENNYDTTPPMLKSDGSFFLYSDLTVDKSRWQQGNVFSCSVMHEALHNHYTQKSLSLSP
light: not shown
notes: also called Sample No. 212 full-length heavy chain
B3: IgG2 full-length heavy chain with T366W/L368A/Y407V (SEQ ID NO: 88) with light chain SEQ ID NO: 61 (antibody)
heavy: QVQLQESGPGLVRPSQTLSLTCTVSGYSITSDHAWSWVRQPPGRGLEWIGYISYSGITTYNPSLKSRVTMLRDTSKNQFSLRLSSVTAADTAVYYCARSLARTTAMDYWGQGSLVTVSSASTKGPSVFPLAPCSRSTSESTAALGCLVKDYFPEPVTVSWNSGALTSGVHTFPAVLQSSGLYSLSSVVTVPSSNFGTQTYTCNVDHKPSNTKVDKTVERKCCVECPPCPAPPVAGPSVFLFPPKPKDTLMISRTPEVTCVVVDVSHEDPEVQFNWYVDGVEVHNAKTKPREEQFNSTFRVVSVLTVVHQDWLNGKEYKCKVSNKGLPAPIEKTISKTKGQPREPQVYTLPPSREEMTKNQVSLWCAVKGFYPSDIAVEWESNGQPENNYKTTPPMLDSDGSFFLVSKLTVDKSRWQQGNVFSCSVMHEALHNHYTQKSLSLSP
light: not shown
B4: IgG2 full-length heavy chain with K392L/T394W/F405A/Y407V (SEQ ID NO: 90) with light chain SEQ ID NO: 61 (antibody)
heavy: QVQLQESGPGLVRPSQTLSLTCTVSGYSITSDHAWSWVRQPPGRGLEWIGYISYSGITTYNPSLKSRVTMLRDTSKNQFSLRLSSVTAADTAVYYCARSLARTTAMDYWGQGSLVTVSSASTKGPSVFPLAPCSRSTSESTAALGCLVKDYFPEPVTVSWNSGALTSGVHTFPAVLQSSGLYSLSSVVTVPSSNFGTQTYTCNVDHKPSNTKVDKTVERKCCVECPPCPAPPVAGPSVFLFPPKPKDTLMISRTPEVTCVVVDVSHEDPEVQFNWYVDGVEVHNAKTKPREEQFNSTFRVVSVLTVVHQDWLNGKEYKCKVSNKGLPAPIEKTISKTKGQPREPQVYTLPPSREEMTKNQVSLTCLVKGFYPSDIAVEWESNGQPENNYLTWPPMLDSDGSFALVSKLTVDKSRWQQGNVFSCSVMHEALHNHYTQKSLSLSP
light: not shown
B5: IgG2 full-length heavy chain with Q347R/K360E/D399V/F405T/K409W (SEQ ID NO: 89) with light chain SEQ ID NO: 61 (antibody)
heavy: QVQLQESGPGLVRPSQTLSLTCTVSGYSITSDHAWSWVRQPPGRGLEWIGYISYSGITTYNPSLKSRVTMLRDTSKNQFSLRLSSVTAADTAVYYCARSLARTTAMDYWGQGSLVTVSSASTKGPSVFPLAPCSRSTSESTAALGCLVKDYFPEPVTVSWNSGALTSGVHTFPAVLQSSGLYSLSSVVTVPSSNFGTQTYTCNVDHKPSNTKVDKTVERKCCVECPPCPAPPVAGPSVFLFPPKPKDTLMISRTPEVTCVVVDVSHEDPEVQFNWYVDGVEVHNAKTKPREEQFNSTFRVVSVLTVVHQDWLNGKEYKCKVSNKGLPAPIEKTISKTKGQPREPRVYTLPPSREEMTENQVSLTCLVKGFYPSDIAVEWESNGQPENNYKTTPPMLVSDGSFTLYSWLTVDKSRWQQGNVFSCSVMHEALHNHYTQKSLSLSP
light: not shown
notes: also called Sample No. 210 full-length heavy chain
B6: IgG2 full-length heavy chain with T394W/F405A (SEQ ID NO: 87) with light chain SEQ ID NO: 61 (antibody)
heavy: QVQLQESGPGLVRPSQTLSLTCTVSGYSITSDHAWSWVRQPPGRGLEWIGYISYSGITTYNPSLKSRVTMLRDTSKNQFSLRLSSVTAADTAVYYCARSLARTTAMDYWGQGSLVTVSSASTKGPSVFPLAPCSRSTSESTAALGCLVKDYFPEPVTVSWNSGALTSGVHTFPAVLQSSGLYSLSSVVTVPSSNFGTQTYTCNVDHKPSNTKVDKTVERKCCVECPPCPAPPVAGPSVFLFPPKPKDTLMISRTPEVTCVVVDVSHEDPEVQFNWYVDGVEVHNAKTKPREEQFNSTFRVVSVLTVVHQDWLNGKEYKCKVSNKGLPAPIEKTISKTKGQPREPQVYTLPPSREEMTKNQVSLTCLVKGFYPSDIAVEWESNGQPENNYKTWPPMLDSDGSFALYSKLTVDKSRWQQGNVFSCSVMHEALHNHYTQKSLSLSP
light: not shown
notes: also called Sample No. 208 full-length heavy chain
B7: IgG1 full-length heavy chain with K392D/D399K/K409D (SEQ ID NO: 50) with light chain SEQ ID NO: 61 (antibody)
heavy: QVQLQESGPGLVRPSQTLSLTCTVSGYSITSDHAWSWVRQPPGRGLEWIGYISYSGITTYNPSLKSRVTMLRDTSKNQFSLRLSSVTAADTAVYYCARSLARTTAMDYWGQGSLVTVSSASTKGPSVFPLAPSSKSTSGGTAALGCLVKDYFPEPVTVSWNSGALTSGVHTFPAVLQSSGLYSLSSVVTVPSSSLGTQTYICNVNHKPSNTKVDKRVEPKSCDKTHTCPPCPAPELLGGPSVFLFPPKPKDTLMISRTPEVTCVVVDVSHEDPEVKFNWYVDGVEVHNAKTKPREEQYNSTYRVVSVLTVLHQDWLNGKEYKCKVSNKALPAPIEKTISKAKGQPREPQVYTLPPSREEMTKNQVSLTCLVKGFYPSDIAVEWESNGQPENNYDTTPPVLKSDGSFFLYSDLTVDKSRWQQGNVFSCSVMHEALHNHYTQKSLSLSP
light: not shown
B8: IgG1 full-length heavy chain with Q347E/S354Y/T366Y/Y407T (SEQ ID NO: 39) with light chain SEQ ID NO: 61 (antibody)
heavy: QVQLQESGPGLVRPSQTLSLTCTVSGYSITSDHAWSWVRQPPGRGLEWIGYISYSGITTYNPSLKSRVTMLRDTSKNQFSLRLSSVTAADTAVYYCARSLARTTAMDYWGQGSLVTVSSASTKGPSVFPLAPSSKSTSGGTAALGCLVKDYFPEPVTVSWNSGALTSGVHTFPAVLQSSGLYSLSSVVTVPSSSLGTQTYICNVNHKPSNTKVDKRVEPKSCDKTHTCPPCPAPELLGGPSVFLFPPKPKDTLMISRTPEVTCVVVDVSHEDPEVKFNWYVDGVEVHNAKTKPREEQYNSTYRVVSVLTVLHQDWLNGKEYKCKVSNKALPAPIEKTISKAKGQPREPEVYTLPPYREEMTKNQVSLYCLVKGFYPSDIAVEWESNGQPENNYKTTPPVLDSDGSFFLTSKLTVDKSRWQQGNVFSCSVMHEALHNHYTQKSLSLSP
light: not shown
B9: IgG1 full-length heavy chain with T350V/L351Y/T366L/K392L/T394W/F405A/Y407V (SEQ ID NO: 60) with light chain SEQ ID NO: 61 (antibody)
heavy: QVQLQESGPGLVRPSQTLSLTCTVSGYSITSDHAWSWVRQPPGRGLEWIGYISYSGITTYNPSLKSRVTMLRDTSKNQFSLRLSSVTAADTAVYYCARSLARTTAMDYWGQGSLVTVSSASTKGPSVFPLAPSSKSTSGGTAALGCLVKDYFPEPVTVSWNSGALTSGVHTFPAVLQSSGLYSLSSVVTVPSSSLGTQTYICNVNHKPSNTKVDKRVEPKSCDKTHTCPPCPAPELLGGPSVFLFPPKPKDTLMISRTPEVTCVVVDVSHEDPEVKFNWYVDGVEVHNAKTKPREEQYNSTYRVVSVLTVLHQDWLNGKEYKCKVSNKALPAPIEKTISKAKGQPREPQVYVYPPSREEMTKNQVSLLCLVKGFYPSDIAVEWESNGQPENNYLTWPPVLDSDGSFALVSKLTVDKSRWQQGNVFSCSVMHEALHNHYTQKSLSLSP
light: not shown
B10: IgG1 full-length heavy chain with K392L/T394W/F405A/Y407V (SEQ ID NO: 41) with light chain SEQ ID NO: 61 (antibody)
heavy: QVQLQESGPGLVRPSQTLSLTCTVSGYSITSDHAWSWVRQPPGRGLEWIGYISYSGITTYNPSLKSRVTMLRDTSKNQFSLRLSSVTAADTAVYYCARSLARTTAMDYWGQGSLVTVSSASTKGPSVFPLAPSSKSTSGGTAALGCLVKDYFPEPVTVSWNSGALTSGVHTFPAVLQSSGLYSLSSVVTVPSSSLGTQTYICNVNHKPSNTKVDKRVEPKSCDKTHTCPPCPAPELLGGPSVFLFPPKPKDTLMISRTPEVTCVVVDVSHEDPEVKFNWYVDGVEVHNAKTKPREEQYNSTYRVVSVLTVLHQDWLNGKEYKCKVSNKALPAPIEKTISKAKGQPREPQVYTLPPSREEMTKNQVSLTCLVKGFYPSDIAVEWESNGQPENNYLTWPPVLDSDGSFALVSKLTVDKSRWQQGNVFSCSVMHEALHNHYTQKSLSLSP
light: not shown
notes: also called Sample No. 200 full-length heavy chain
B11: IgG1 full-length heavy chain with Q347R/K360E/D399V/F405T/K409W (SEQ ID NO: 31) with light chain SEQ ID NO: 61 (antibody)
heavy: QVQLQESGPGLVRPSQTLSLTCTVSGYSITSDHAWSWVRQPPGRGLEWIGYISYSGITTYNPSLKSRVTMLRDTSKNQFSLRLSSVTAADTAVYYCARSLARTTAMDYWGQGSLVTVSSASTKGPSVFPLAPSSKSTSGGTAALGCLVKDYFPEPVTVSWNSGALTSGVHTFPAVLQSSGLYSLSSVVTVPSSSLGTQTYICNVNHKPSNTKVDKRVEPKSCDKTHTCPPCPAPELLGGPSVFLFPPKPKDTLMISRTPEVTCVVVDVSHEDPEVKFNWYVDGVEVHNAKTKPREEQYNSTYRVVSVLTVLHQDWLNGKEYKCKVSNKALPAPIEKTISKAKGQPREPRVYTLPPSREEMTENQVSLTCLVKGFYPSDIAVEWESNGQPENNYKTTPPVLVSDGSFTLYSWLTVDKSRWQQGNVFSCSVMHEALHNHYTQKSLSLSP
light: not shown
B12: IgG1 full-length heavy chain with T366W/L368A/Y407V (SEQ ID NO: 26) with light chain SEQ ID NO: 61 (antibody)
heavy: QVQLQESGPGLVRPSQTLSLTCTVSGYSITSDHAWSWVRQPPGRGLEWIGYISYSGITTYNPSLKSRVTMLRDTSKNQFSLRLSSVTAADTAVYYCARSLARTTAMDYWGQGSLVTVSSASTKGPSVFPLAPSSKSTSGGTAALGCLVKDYFPEPVTVSWNSGALTSGVHTFPAVLQSSGLYSLSSVVTVPSSSLGTQTYICNVNHKPSNTKVDKRVEPKSCDKTHTCPPCPAPELLGGPSVFLFPPKPKDTLMISRTPEVTCVVVDVSHEDPEVKFNWYVDGVEVHNAKTKPREEQYNSTYRVVSVLTVLHQDWLNGKEYKCKVSNKALPAPIEKTISKAKGQPREPQVYTLPPSREEMTKNQVSLWCAVKGFYPSDIAVEWESNGQPENNYKTTPPVLDSDGSFFLVSKLTVDKSRWQQGNVFSCSVMHEALHNHYTQKSLSLSP
light: not shown

The data set deals with the molecule itself. The experiment in a line: SEC peak area ratio after coexpression of full-length heavy chain, light chain and Fc fragment.
B1: the “Homo full-length heavy chain (%)” value stood at 83%.

On to B2, for which the “Homo full-length heavy chain (%)” value stood at 79.6%. As to B3, the “Homo full-length heavy chain (%)” value worked out at 80%. As for B4, the figure is 78.5%; as for B5, 80.4%; as for B6, 80.8%.

On to B7, for which the “Homo full-length heavy chain (%)” value turned out to be 76.8%. B8: the “Homo full-length heavy chain (%)” value turned out to be 70.4%. With B9, the “Homo full-length heavy chain (%)” value was 71.9%. As for B10, the figure is 72.7%; as for B11, 72.1%.

Consider B12, for which the “Homo full-length heavy chain (%)” value amounted to 73.8%.
